Assay [1] concerns the target rHuman ErbB2/Fc Chimera, CF (R&D Systems Cat#1129-ER) (human) (UniProt P04626). The experiment in a line: MSD ECL multi-spot assay, antigen spotted on plate, Fab […]; blank spot 2877.
The target of assay [2] is rHuman HGF R/c-MET/Fc Chimera, CF (R&D Systems Cat#358-MT/CF) (human) (UniProt P08581). The assay is described as above.
In assay [3] the target is rHuman IGF-1 sR (IGF-1 sR), CF (R&D Systems Cat#391-GR) (human) (UniProt P08069). The description is as above.
The target of assay [4] is rHuman CD44/Fc Chimera, CF (R&D Systems Cat#3660-CD) (human) (UniProt P16070). Nature of the assay: MSD ECL multi-spot, Fab 0.43 uM, blank 879.
Assay [5] concerns the target rHuman HGF R/c-MET/Fc Chimera, CF (R&D Systems Cat#358-MT/CF) (human) (UniProt P08581). The experiment in a line: MSD ECL multi-spot, Fab 0.43 uM, blank 879.
Assay [6] addresses rHuman EGF R/Fc Chimera, CF (R&D Systems Cat#344-ER) (human) (UniProt P00533). Nature of the assay: MSD ECL multi-spot, Fab 0.43 uM, blank 879.
The target of assay [7] is rHuman P-Cadherin/Fc Chimera, CF (R&D Systems Cat#861-PC) (human) (UniProt P22223). The experiment in a line: ECL (MSD Multi-Spot) binding, antigen spotted on plate, Fab at […]; blank spot 294.
Assay [8] concerns the target Recombinant Human DLL4 (R&D Systems Cat#1506-D4/CF) (human) (UniProt Q9NR61). Described as above.
In assay [9] the target is rHuman P-Cadherin/Fc Chimera, CF (R&D Systems Cat#861-PC) (human) (UniProt P22223). Nature of the assay: ECL (MSD Multi-Spot) binding, antigen spotted on plate, Fab at 1000 nM; blank spot 1133.
Assay [10] addresses Recombinant Human DLL4 (R&D Systems Cat#1506-D4/CF) (human) (UniProt Q9NR61). The description is as above.
Assay [11] addresses rHuman P-Cadherin/Fc Chimera, CF (R&D Systems Cat#861-PC) (human) (UniProt P22223). The experiment in a line: ECL (MSD Multi-Spot) binding, antigen spotted on plate, Fab at 62.5 nM; blank spot 268.
The target in assay [12] is Recombinant Human DLL4 (R&D Systems Cat#1506-D4/CF) (human) (UniProt Q9NR61). The description is as above.
For assay [13] the target is unchanged. The experiment in a line: ECL (MSD Multi-Spot) binding, antigen spotted on plate, Fab at […]; blank spot 250.
Assay [14] concerns the target rHuman P-Cadherin/Fc Chimera, CF (R&D Systems Cat#861-PC) (human) (UniProt P22223). The experiment in a line: ECL (MSD Multi-Spot) binding, antigen spotted on plate, Fab at 250 nM; blank spot 590.
Assay [15] concerns the target Recombinant Human DLL4 (R&D Systems Cat#1506-D4/CF) (human) (UniProt Q9NR61). The assay is described as above.
In assay [16] the target is rHuman P-Cadherin/Fc Chimera, CF (R&D Systems Cat#861-PC) (human) (UniProt P22223). The experiment in a line: ECL (MSD Multi-Spot) binding, antigen spotted on plate, Fab at 7.8 nM; blank spot 316.
For assay [17], the target named is Recombinant Human DLL4 (R&D Systems Cat#1506-D4/CF) (human) (UniProt Q9NR61). Described as above.
The target is the same in assay [18]. The experiment in a line: ECL (MSD Multi-Spot) binding, antigen spotted on plate, Fab at 125 nM; blank spot 403.
In assay [19] the target is rHuman P-Cadherin/Fc Chimera, CF (R&D Systems Cat#861-PC) (human) (UniProt P22223). Nature of the assay: ECL (MSD Multi-Spot) binding, antigen spotted on plate, Fab at 500 nM; blank spot 680.
Assay [20] has as its target Recombinant Human DLL4 (R&D Systems Cat#1506-D4/CF) (human) (UniProt Q9NR61). The description is as above.
For assay [21], the target named is rHuman P-Cadherin/Fc Chimera, CF (R&D Systems Cat#861-PC) (human) (UniProt P22223). The experiment in a line: MSD ECL multi-spot assay, antigen spotted on plate, Fab 0.51 uM; blank spot 1393.
Assay [22] addresses rHuman Erythropoietin R/Fc Chimera, CF (R&D Systems Cat#963-ER) (human) (UniProt P19235). The assay is described as above.
The target of assay [23] is rHuman EGF R/Fc Chimera, CF (R&D Systems Cat#344-ER) (human) (UniProt P00533). The description is as above.
The target of assay [24] is rHuman Notch-1/Fc Chimera, CF (R&D Systems Cat#3647-TK) (human) (UniProt P46531). The description is as above.

Chain of rHuman Erythropoietin R/Fc Chimera, CF (R&D Systems Cat#963-ER) (human) (P19235 25-250, change not shown): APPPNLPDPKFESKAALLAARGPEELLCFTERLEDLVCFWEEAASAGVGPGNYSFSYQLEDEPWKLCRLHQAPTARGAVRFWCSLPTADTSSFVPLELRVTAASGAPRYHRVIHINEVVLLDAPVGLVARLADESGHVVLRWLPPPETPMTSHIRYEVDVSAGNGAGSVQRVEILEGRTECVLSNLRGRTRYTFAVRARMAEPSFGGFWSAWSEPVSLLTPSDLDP

Consider “Fab VH1-46_IGHD6-13*01_IGHJ4*01 & A27_IGKJ1*01”, for which the results for the ECL signal in assay [1], in assay [2] and in assay [3] were 6940, 6310 and 5470, respectively.

With “Fab VH1-46_IGHD6-13*01_IGHJ4*01 & B3_IGKJ1*01”, the ECL signal in assay [4] is 1500; in [5], 1140; in [6], 1230; in [7] it was 971; in [8], 525; in [9], 4500. In addition, the ECL signal is 2780 in assay [10]; 1170 in [11]; 715 in [12]; 528 in [13]; 2780 in assay [14]; 1560 in [15]. Also, the ECL signal in [16] is 695; in [17] it was 407; in assay [18], 912; in assay [19], 3450; in [20], 2320.

“Fab VH4-34_IGHD7-27*01_IGHJ4*01 & L5_IGKJ1*01”: the ECL signal turned out to be 3180 in assay [21], 2560 in assay [22], 1810 in assay [23] and 2880 in assay [24].

(Values after US20120058906A1.)
